Measurements: patent US20030036181A1 (MAXYGEN, published 2003)

Biological target: T1, human FSH receptor, stably expressed on CHO K1 cells (CHO FSH-R/CRE-luc cell line) (human, UniProt P23945 18-695)
T1 sequence (looked up): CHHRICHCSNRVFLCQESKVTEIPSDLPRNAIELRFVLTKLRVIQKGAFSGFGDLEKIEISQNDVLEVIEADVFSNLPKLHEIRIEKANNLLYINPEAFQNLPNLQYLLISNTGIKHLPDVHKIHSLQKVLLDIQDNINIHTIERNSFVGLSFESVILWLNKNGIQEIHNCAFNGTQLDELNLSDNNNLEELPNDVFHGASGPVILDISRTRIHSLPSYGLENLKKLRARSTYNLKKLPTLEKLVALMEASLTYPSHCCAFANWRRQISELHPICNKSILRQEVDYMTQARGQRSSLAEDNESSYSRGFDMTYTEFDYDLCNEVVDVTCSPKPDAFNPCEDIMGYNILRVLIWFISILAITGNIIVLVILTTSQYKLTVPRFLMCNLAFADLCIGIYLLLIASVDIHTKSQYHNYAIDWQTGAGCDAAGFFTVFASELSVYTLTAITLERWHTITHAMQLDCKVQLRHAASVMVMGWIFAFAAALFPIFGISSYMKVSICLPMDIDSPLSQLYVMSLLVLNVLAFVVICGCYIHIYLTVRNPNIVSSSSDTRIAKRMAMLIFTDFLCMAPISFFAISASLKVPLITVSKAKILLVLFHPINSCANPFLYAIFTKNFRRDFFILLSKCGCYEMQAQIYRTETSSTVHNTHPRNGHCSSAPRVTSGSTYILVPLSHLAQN
Assay: cell-based or functional assay

B1: FSH1208: variant form of FSH containing two N-linked glycosylations at the N-terminus of the alpha subunit (ligand)
chain 1: not shown
chain 2: CELTNITIAIEKEECRFCISINTTWCAGYCYTRDLVYKDPARPKIQKTCTFKELVYETVRVPGCAHHADSLYTYPVATQCHCGKCDSDSTDCTVRGLGPSYCSFGEMKE
modifications: both asparagine residues of the extension … are glycosylated
specific activity (in vitro bioactivity in the FSH luciferase assay over FSH content by ELISA), relative to the wildtype reference: ~0.33 fold of wildtype FSH
